Reference: patent US5292651

Experiments:
[1] = molecular target: T1, NaeI restriction endonuclease (recombinant, crude extract of NEB#777) T2A (Nocardia aerocolonigenes) (UniProt P50187); assay: cleavage_in_vitro; conditions: PstI-codigested pBR322, NEBuffer 1, 37 C, 1 h; after overnight IPTG induction
T1 sequence: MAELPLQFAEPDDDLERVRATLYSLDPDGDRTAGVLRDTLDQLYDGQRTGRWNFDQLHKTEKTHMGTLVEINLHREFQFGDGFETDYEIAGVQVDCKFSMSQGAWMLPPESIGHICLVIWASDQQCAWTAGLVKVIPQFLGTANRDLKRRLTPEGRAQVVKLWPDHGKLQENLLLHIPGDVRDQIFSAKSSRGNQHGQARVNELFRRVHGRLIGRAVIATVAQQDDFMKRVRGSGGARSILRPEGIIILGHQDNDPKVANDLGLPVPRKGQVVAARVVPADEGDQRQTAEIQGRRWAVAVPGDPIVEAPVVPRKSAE

[2] = molecular target: T2, NaeI restriction endonuclease (recombinant, from pCTnaeIR16-1) T2A (Nocardia aerocolonigenes) (UniProt P50187); assay: cleavage_in_vitro; conditions: 60 U, 4 h, 37 C, 10 mM MgCl2; nonspecific nicking test
T2 sequence: T1 sequence

Substance	activity [1] [U/g cells]	activity (% RFI converted to RFII) [2]
pBR322 plasmid DNA	77000	
phiX174 RFI DNA		< 5
